{"source": "patent US20220017601A1", "about": "(JIANGSU HENGRUI MEDICINE, published 2022)", "key": {"human TGF-β1 [1]": {"target": "T1, human TGF-β1 (human, UniProt P01137 279-390)", "T1 construct": "Bought protein; also called Human TGF-β1 (8915LC, CST); human TGF-β1 (R&D, 240-B-010)", "T1 sequence (P01137 279-390 limits assumed)": "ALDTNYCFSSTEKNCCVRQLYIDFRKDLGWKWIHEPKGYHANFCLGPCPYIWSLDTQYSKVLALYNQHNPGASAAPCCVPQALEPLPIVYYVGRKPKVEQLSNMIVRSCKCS", "test": "ELISA, plate coated with human TGF-β1, anti-human Fc-HRP, OD 450 nm", "method": "a. […] Washing 3 times with 250 μl of 1×PBST, 250 μl of 5% milk PBS was added for blocking at 37° C. for 2 hours. c. […] Washing 3 times with 250 μl 1×PBST. e. 100 μl of Anti-human Fc antibody-HRP (1:4000) was added to each well and incubated for 40 minutes at 37° C. f. 100 μl of TMB was added into each well, incubated for 10 minutes at room temperature, and the reaction was stopped by adding 100 μl of 1 M H₂SO₄. g. The absorbance at 450 nm was measured on a microplate reader, and the data was analyzed by Graphpad Prism 5."}, "human TGF-β1 [2]": {"target": "T1, human TGF-β1", "test": "cell-based or functional assay"}, "[3]": {"target": "human PD-L1 on CHO/PD-L1 cells (CS187108, Promega) (human, UniProt Q9NZQ7 19-290)", "sequence (Q9NZQ7 19-290)": "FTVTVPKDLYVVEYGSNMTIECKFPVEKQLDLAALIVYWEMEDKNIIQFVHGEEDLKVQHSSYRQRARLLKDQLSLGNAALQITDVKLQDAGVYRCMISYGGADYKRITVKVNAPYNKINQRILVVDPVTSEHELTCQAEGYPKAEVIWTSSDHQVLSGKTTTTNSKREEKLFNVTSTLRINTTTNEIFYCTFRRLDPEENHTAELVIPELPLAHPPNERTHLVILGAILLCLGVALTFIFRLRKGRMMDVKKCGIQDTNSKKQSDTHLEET", "test": "cell-based or functional assay"}}, "data": [{"binder": "PD-L1 antibody (antibody, human IgG4 S228P, kappa, F234A L235A, V domains shown, Human IgG4 with S228P, F234A, L235A and the C-terminal K mutated to A; also called Ab; PD-L1 antibody IgG4 (AA) (S228P)) VH: QVQLVQSGAEVKKPGASVKVSCKASGYTFTSYWMHWVRQAPGQGLEWMGRIGPNSGFTSYNEKFKNRVTMTRDTSTSTVYMELSSLRSEDTAVYYCARGGSSYDYFDYWGQGTTVTVSS VL: DIVLTQSPASLAVSPGQRATITCRASESVSIHGTHLMHWYQQKPGQPPKLLIYAASNLESGVPARFSGSGSGTDFTLTINPVEAEDTANYYCQQSFEDPLTFGQGTKLEIKR", "values": [{"measurement": "binding result", "setting": "human TGF-β1 [1]", "value": "no binding (tested: 1e6 pM (Log(pM) 6))"}, {"measurement": "TGFβ-induced pSMAD3 reporter activity (luciferase, HepG2 cells), IC50", "setting": "human TGF-β1 [2]", "value": "> 500", "unit": "nM"}, {"measurement": "EC50 (read off the curve), luminescence of the PD-1/PD-L1 blockade reporter assay", "setting": "[3]", "value": "~0.3", "unit": "nM"}]}]}
